Source: patent US20250388672A1
Values belong to the binder of their own block, whether it stands above or below them.

Tests used:
[1] = target: human CD3 expressed on HEK293H cells (human) (UniProt P20963); test: flow cytometry on HEK293H cells expressing human CD3
[2] = target: human TCR(2IAN)/CD3 expressed on HEK293H cells (human) (UniProt P04234); test: flow cytometry on HEK293H cells expressing human TCR(2IAN)/CD3
[3] = target: human TCR/CD3 complex on purified primary human T cells (human); test: flow cytometry on primary human T cells
human TCR/CD3 complex on purified primary human T cells (human), sequence (delta, as listed by the source limits assumed, form in doubt, chain 1 of 4): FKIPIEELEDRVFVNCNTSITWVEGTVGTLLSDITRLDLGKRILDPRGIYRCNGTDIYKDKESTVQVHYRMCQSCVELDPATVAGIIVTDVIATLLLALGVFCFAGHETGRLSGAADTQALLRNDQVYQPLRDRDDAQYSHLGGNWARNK
human TCR/CD3 complex on purified primary human T cells (human), sequence (gamma, as listed by the source limits assumed, form in doubt, chain 2 of 4): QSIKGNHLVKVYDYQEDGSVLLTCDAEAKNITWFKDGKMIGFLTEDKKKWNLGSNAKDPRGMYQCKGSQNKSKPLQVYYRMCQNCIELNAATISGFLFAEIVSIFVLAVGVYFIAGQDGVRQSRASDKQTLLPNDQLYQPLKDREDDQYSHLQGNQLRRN
human TCR/CD3 complex on purified primary human T cells (human), sequence (epsilon, as listed by the source limits assumed, form in doubt, chain 3 of 4): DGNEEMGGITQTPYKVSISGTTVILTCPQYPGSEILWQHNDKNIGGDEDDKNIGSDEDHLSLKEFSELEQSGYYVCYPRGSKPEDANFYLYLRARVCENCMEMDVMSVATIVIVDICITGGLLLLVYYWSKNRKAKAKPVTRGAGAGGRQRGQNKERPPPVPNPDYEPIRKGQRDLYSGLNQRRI
human TCR/CD3 complex on purified primary human T cells (human), sequence (zeta, as listed by the source limits assumed, form in doubt, chain 4 of 4): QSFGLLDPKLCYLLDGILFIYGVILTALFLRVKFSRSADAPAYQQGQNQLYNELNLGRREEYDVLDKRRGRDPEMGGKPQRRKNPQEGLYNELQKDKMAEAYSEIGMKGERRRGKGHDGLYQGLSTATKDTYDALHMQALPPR

human CD3 expressed on HEK293H cells (human), sequence (chain, as listed by the source limits assumed, chain 1 of 4): as the sequence (delta, as listed by the source limits assumed, form in doubt, chain 1 of 4) above
human CD3 expressed on HEK293H cells (human), sequence (chain, as listed by the source limits assumed, chain 2 of 4): as the sequence (gamma, as listed by the source limits assumed, form in doubt, chain 2 of 4) above
human CD3 expressed on HEK293H cells (human), sequence (chain, as listed by the source limits assumed, chain 3 of 4): as the sequence (epsilon, as listed by the source limits assumed, form in doubt, chain 3 of 4) above
human CD3 expressed on HEK293H cells (human), sequence (P20963 22-164 limits assumed, chain 4 of 4): as the sequence (zeta, as listed by the source limits assumed, form in doubt, chain 4 of 4) above

EC50 [1]: > 100 nM
MCF at 1 µM/top [1]: 3300 MCF
EC50 [2]: > 100 nM
MCF at 1 µM/top [2]: 15900 MCF
B1: T0170011A10 (VHH, not shown: small tags and cut ends)
VHH: EVQLVESGGGLVQGGGSLSLSCAASGRTFSSYAMAWFRQPPGKEREFVASISWSGENTNYRNSVKGRFTISRDNAKNTVYLQMNSLKPEDTAVYYCAAKIAKTYPDNWYWTKSNNYNYWGQGTQVTVSS

EC50 [1]: > 100 nM
MCF at 1 µM/top [1]: 2850 MCF
EC50 [2]: > 100 nM
MCF at 1 µM/top [2]: 4950 MCF
B2: T0170052G04 (VHH, not shown: small tags and cut ends)
VHH: EVQLVESGGGAVQPGGSLRLSCAASGIRISRNMMGWFRQAPGKQRDLVARITPGGDTYYVDSVKGRFSISKDNAKNTVYLQMNSLKPEDTAVYYCNSYSTLGSWGQGTQVTVSS

EC50 [3]: > 100 nM
B3: T017000016 (bispecific antibody)
chain: EVQLVESGGGLVQPGGSLRLSCTFSGGTFSSYTMGWFRQAPGKEREFVAEVRWGGVTTYSNSLKDRFSISEDSVKNAVYLQMNSLKPEDTAVYYCAAVRQMYMTVVPDYWGQGTLVTVSSGGGGSGGGGSGGGGSGGGGSGGGGSGGGGSGGGGSEVQLVESGGGSVQAGGSLRLSCAASGRTFSTNPMGWFRQVPGKERELIAAVRWADGNTFYADSVKGRFTISRDNAKKTVYLQMNSLKSEDTATYYCAAGRPWSAYHSPAEYVHWGQGTLVTVSSGAADYKDHDGDYKDHDIDYKDDDDKGAAHHHHHH
